Results: paper PMC7599583 (Viruses, 2020)
Values joined by “and” are separate entries in the source; they are usually repeats but may differ in a detail not shown here. Equal values may be shown once.

Columns and labels:
[1] = biological target: T1, Human adenovirus serotype 7 fiber knob, His-tagged (His-HAd7K), wild type (human adenovirus serotype 7 (HAdV7), …, N-glycosylated (sugars almost 15% of the total mass by mass spectrometry) / Wild-type trimeric knob; N-terminal His tag and GSHM omitted. The printed limits D87-P273 do not fit the paper's own residue); test: cryo-EM structure; details: both partners purified
T1 chain: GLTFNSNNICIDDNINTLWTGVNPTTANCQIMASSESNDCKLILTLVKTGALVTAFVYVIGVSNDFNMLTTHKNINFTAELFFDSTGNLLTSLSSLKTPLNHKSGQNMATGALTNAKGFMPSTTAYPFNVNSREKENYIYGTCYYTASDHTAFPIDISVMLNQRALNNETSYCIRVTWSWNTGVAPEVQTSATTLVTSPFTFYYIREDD

[2] = biological target: T2, Human adenovirus serotype 7 fiber knob, His-tagged (His-HAd7K), wild type (human adenovirus serotype 7 (HAdV7), …); test: cryo-EM structure; details: both partners purified
T2 chain: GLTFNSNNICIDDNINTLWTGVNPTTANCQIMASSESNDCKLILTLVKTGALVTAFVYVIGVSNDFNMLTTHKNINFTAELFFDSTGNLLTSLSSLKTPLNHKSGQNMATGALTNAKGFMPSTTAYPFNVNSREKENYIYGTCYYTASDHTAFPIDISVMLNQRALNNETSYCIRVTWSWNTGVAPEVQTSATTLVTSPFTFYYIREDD

[3] = biological target: T3, Human adenovirus serotype 7 fiber knob, His-tagged (His-HAd7K), wild type (human adenovirus serotype 7 (HAdV7), …); test: BLI
T3 chain: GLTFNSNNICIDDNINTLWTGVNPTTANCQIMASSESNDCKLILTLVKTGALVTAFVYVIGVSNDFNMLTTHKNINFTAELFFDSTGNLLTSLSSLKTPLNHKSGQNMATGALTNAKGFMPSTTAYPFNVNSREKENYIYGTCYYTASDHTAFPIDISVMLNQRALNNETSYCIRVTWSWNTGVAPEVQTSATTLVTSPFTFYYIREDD

[4] = biological target: T3, Human adenovirus serotype 7 fiber knob, …; test: BLI

B1: EC2-EC3 domains of desmoglein-2 (EC23 module), glycosylated (domain or fragment, UniProt Q14126 149-386, looked up)
chain: VLDINDNEPVFTQDVFVGSVEELSAAHTLVMKINATDADEPNTLNSKISYRIVSLEPAYPPVFYLNKDTGEIYTTSVTLDREEHSSYTLTVEARDGNGEVTDKPVKQAQVQIRILDVNDNIPVVENKVLEGMVEENQVNVEVTRIKVFDADEIGSDNWLANFTFASGNEGGYFHIETDAQTNEGIVTLIKEVDYEEMKNLDFSVIVANKAAFHKSIRSKYKPTPIPIKVKVKNVKEGI
notes: also called EC2-EC3 module; EC23 module of DSG2
Q: How did the “stoichiometry N” value [1] turn out when B1 was run?
A: The value was 2 EC23 modules per HAd7K trimer and 3 EC23 modules per HAd7K trimer.

B2: Human adenovirus serotype 7 fiber knob, His-tagged (His-HAd7K), wild type (domain or fragment)
chain: GLTFNSNNICIDDNINTLWTGVNPTTANCQIMASSESNDCKLILTLVKTGALVTAFVYVIGVSNDFNMLTTHKNINFTAELFFDSTGNLLTSLSSLKTPLNHKSGQNMATGALTNAKGFMPSTTAYPFNVNSREKENYIYGTCYYTASDHTAFPIDISVMLNQRALNNETSYCIRVTWSWNTGVAPEVQTSATTLVTSPFTFYYIREDD
modifications: Wild-type trimeric knob; N-terminal His tag and GSHM omitted. The printed limits D87-P273 do not fit the paper's own residue numbering (V300 and P302 are present in the knob), so the deposited knob …
Q: Which “stoichiometry N” value [2] does the source give for B2 here?
A: The value was 3.

B3: Desmoglein-2 (DSG2), non His-tagged, Leinco Technologies (receptor)
chain: AWITAPVALREGEDLSKKNPIAKIHSDLAEERGLKITYKYTGKGITEPPFGIFVFNKDTGELNVTSILDREETPFFLLTGYALDARGNNVEKPLELRIKVLDINDNEPVFTQDVFVGSVEELSAAHTLVMKINATDADEPNTLNSKISYRIVSLEPAYPPVFYLNKDTGEIYTTSVTLDREEHSSYTLTVEARDGNGEVTDKPVKQAQVQIRILDVNDNIPVVENKVLEGMVEENQVNVEVTRIKVFDADEIGSDNWLANFTFASGNEGGYFHIETDAQTNEGIVTLIKEVDYEEMKNLDFSVIVANKAAFHKSIRSKYKPTPIPIKVKVKNVKEGIHFKSSVISIYVSESMDRSSKGQIIGNFQAFDEDTGLPAHARYVKLEDRDNWISVDSVTSEIKLAKLPDFESRYVQNGTYTVKIVAISEDYPRKTITGTVLINVEDINDNCPTLIEPVQTICHDAEYVNVTAEDLDGHPNSGPFSFSVIDKPPGMAEKWKIARQESTSVLLQQSEKKLGRSEIQFLISDNQGFSCPEKQVLTLTVCECLHGSGCREAQHDSYVG
modifications: Wild-type trimeric knob; N-terminal His tag and GSHM omitted. The printed limits D87-P273 do not fit the paper's own residue numbering (V300 and P302 are present in the knob), so the deposited knob entity (same as 3EXW) with the last shaft repeat is used. Entity position = fiber number - 112 (D265=153, F269=157, N192=80), an offset inferred by assuming a 325-residue fiber and comparing with HAd3K.
Q: Which results are given for B3?
A: Kd [3]: 4.04 nM; koff [4]: 0.000112 s⁻¹
